Measurements reported in paper PMC8058416, “Coordinated and High-Level Expression of Biosynthetic Pathway Genes Is Responsible for the Production of a Major Floral Scent Compound Methyl Benzoate in Hedychium coronarium” (Frontiers in Plant Science, 2021).

Columns and labels:
[1] = substrate: O=C(O)c1ccccc1; assay: GC-MS (SPME) of methyl benzoate formed, Michaelis-Menten fit; assay type: biochemical, Hedychium coronarium; details: SAM co-substrate (2 mM in standard assay), 100 mM KCl
[2] = substrate: O=C(O)c1ccccc1O; assay: GC-MS (SPME) of methyl salicylate formed, Michaelis-Menten fit; assay type: biochemical, Hedychium coronarium; details: SAM co-substrate (2 mM in standard assay), 100 mM KCl; optimal reaction condition

B1: HcBSMT1 (Hedychium coronarium) (protein)
chain: MLPNTTIMEGEMSLKVEHALHMVGGTGETSYVANSRLQEKAIHQTKSLLAIAVEETYKALHSDQMVVVDLGCSSGPNTLLMLSHVLSVATKLPRRMELQFFLNDLPGNDFNCLFQSLEGFKKRLEGEIEGDLLVPYYVAGVAGSFYGRLFPRASVHLFHSSFCLMWLSQVPEGLKIEHGVPLNKGNIYWTETSLAKVEKAYQEQFQKDFSTFLKLRHTELNVGGRMVLVFVGRRKRTPGNGDFVHLYGLLGEALNSMVLEGIIQEEKVDTFNLPIYGASFEEVESVIHNEGVFDLDRAEIFESSWDPFDDSKDDIYAIPNYMRSGKNVANYIRAVVEPLIVHQFGTVILDDLFARYAHLVSKHLLKKKANHTILVFALKKKA
notes: full coding region in pET30a (EcoRI/NotI), E. coli Rosetta (DE3), Ni-NTA partially purified, His tag; 382 residues, 43 kDa predicted; Phe162, Val231, Tyr247
For B1, the Km ([1]; optimal condition (25 °C, optimum pH 6.0)) was 1456.17 ± 163.13 µM.

B2: HcBSMT2 (Hedychium coronarium) (protein)
chain: MGLKVEQALHMVGGSGETSYATNSRLQEKAIYRTKPVLATTIEEMYKGLLPEHMVVVDLGCSSGSNTFIVVSQVLDIIVELRRMMEMKKPLEVQFFLNDLPGNDFNYVFQSLDKFKNKVEEESKGELLVPYYVVGVAGSFYGRLFPCASVHFFHSSYCLMWLSQVPEELENDQGVSLNKGNIYWTETSSSQVEKAYREQYKKDFLTFLRSRYIELNIGGGMMLTFLGRRKRTPGHGDLCHLWRLLAEALNSMVLEEIIPEEKVSTFNLPIYGPSLEEVKSIIHHEGLFDLDRVEIFESSWDPFDDSGDDSFDLSNYTKSAKNVADCIRAVVEPLIVHQFGDVILDDLFTRYAQNVLKHLLKEKANHTILVIALKKRV
notes: full coding region in pET30a (EcoRI/NotI), E. coli Rosetta (DE3), Ni-NTA partially purified, His tag; 377 residues, 43 kDa predicted; Tyr157, Leu226, Trp242
For B2, the Km ([1]; optimal condition (25 °C, optimum pH 6.5)) was 87.73 ± 7.03 µM and the Km [2] was 26.73 ± 3.88 µM.
